According to US20250376528A1 (SYNTHEKINE, published 2025):

T1: extracellular domain of human IL10Rβ (amino acids 20-220, UniProtKB Q08334) (human, UniProt Q08334 20-220)
T1 construct: range 20-220; Antigen used for camel immunization and for phage selection; also called hIL-10Rβecd; hIL10-R2
T1 sequence (looked up): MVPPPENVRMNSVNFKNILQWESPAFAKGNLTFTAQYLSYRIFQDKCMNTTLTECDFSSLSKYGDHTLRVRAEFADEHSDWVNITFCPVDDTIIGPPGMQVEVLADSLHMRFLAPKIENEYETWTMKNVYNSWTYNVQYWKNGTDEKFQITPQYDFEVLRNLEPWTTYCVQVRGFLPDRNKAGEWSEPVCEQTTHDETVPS

T2: extracellular domain of human IL10Rα (amino acids 22-235, UniProtKB Q13651) (human, UniProt Q13651 22-235)
T2 construct: range 22-235; Antigen used for camel immunization and for phage selection; also called hIL-10Rαecd; hIL10-R1
T2 sequence (looked up): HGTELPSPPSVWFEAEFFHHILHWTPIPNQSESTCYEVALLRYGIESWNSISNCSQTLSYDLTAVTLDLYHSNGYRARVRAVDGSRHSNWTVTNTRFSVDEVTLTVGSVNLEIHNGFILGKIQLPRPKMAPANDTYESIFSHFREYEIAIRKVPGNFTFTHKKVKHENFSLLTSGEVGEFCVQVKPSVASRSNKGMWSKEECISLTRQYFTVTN

B1: anti-hIL-10Rβecd VHH SEQ ID NO 56 (VHH)
VHH: QVQLQESGGGSVQAGGSLRLSCAASGYSYSSYCMGWFRQAPGKEREGVATIDSDGMTRYADSVKGRFTISKDNAKNTLYLQMNSLKPEDTAMYYCAAPLYDCDSGAVGRNPPYWGQGTQVTVSS
notes: Camel VHH selected by phage display; also called Anti-IL10Rβ
B2: anti-hIL-10Rβecd VHH SEQ ID NO 52 (VHH)
VHH: QVQLQESGGGSVQAGGSLRLSCAASGYTYSSYCMGWFRQAPGKEREGVAHIDSDGSTSYADSVKGRFTISKDNAKNTLYLQMNSLKPEDTAMYYCAADPIPGPGYCDGGPNKYWGQGTQVTVSS
notes: as for B1
B3: anti-hIL-10Rβecd VHH SEQ ID NO 57 (VHH)
VHH: QVQLQESGGGSVQTGGSLRLSCAASGYTYLRGCMGWFRQAPGKEREGVAVMDVVGDRRSYIDSVKGRFTISRDNAANSVYLQMDNLKPEDTAMYYCTAGPNCVGWRSGLDYWGQGTQVTVSS
notes: as for B1
B4: anti-hIL-10Rαecd VHH SEQ ID NO 44 (VHH)
VHH: QVQLQESGGGSVQAGGSLRLSCAASRYLYSIDYMAWFRQSPGKEREPVAVIYTASGATFYPDSVKGRFTISQDNAKMTVYLQMNSLKSEDTAMYYCAAVRKTDSYLFDAQSFTYWGQGTQVTVSS
notes: Camel VHH selected by phage display; also called Anti-IL10Rα
B5: anti-hIL-10Rαecd VHH SEQ ID NO 48 (VHH)
VHH: QVQLQESGGGSVQAGGSLRLSCTVSGYTYSSNCMGWFRQAPGKEREGVATIYTGGGNTYYADSVKGRFTISQDNAKNTVYLQMNNLKPEDTAMYYCAAEPLSRVYGGSCPTPTFDYWGQGTQVTVSS
notes: as for B4
B6: anti-hIL-10Rαecd VHH SEQ ID NO 46 (VHH)
VHH: QVQLQESGGGSVQAGGSLRLSCAASGYTYSMYCMGWFRQAPGKEREGVAQINSDGSTSYADSVKGRFTISKDNAKNTLYLQMNSLKPEDTAMYYCAADSRVYGGSWYERLCGPYTYEYNYWGQGTQVTVSS
notes: as for B4
B7: anti-hIL-10Rαecd VHH SEQ ID NO 47 (VHH)
VHH: QVQLQESGGGSVQAGGSLRLSCAVSGYAYSTYCMGWFRQAPGKEREGVAAIDSGGSTSYADSVKGRFTISKDNAKNTLYLRMNSLKPEDTAMYYCAAVPPPPDGGSCLFLGPEIKVSKADFRYWGQGTQVTVSS
notes: as for B4
B8: anti-hIL-10Rαecd VHH SEQ ID NO 45 (VHH)
VHH: QVQLQESGGGSVQAGGSLRLSCAASRFTYSSYCMGWFRQAPGKEREGVASIDSDGSTSYTDSVKGRFTISKDNAKNTLYLQMNSLKPEDTAMYYCALDLMSTVVPGFCGFLLSAGMDYWGKGTQVTVSS
notes: as for B4
B9: anti-hIL-10Rαecd VHH SEQ ID NO 49 (VHH)
VHH: QVQLQESGGGSVQAGGSLRLSCGASGYTYSSYCMGWFRQVPGKEREGVAVIDSDGSTSYADSVKGRFTISKDNGKNTLYLQMNSLKPEDTAMYYCAADLGHYRPPCGVLYLGMDYWGKGTQVTVSS
notes: as for B4
B10: anti-hIL-10Rαecd VHH SEQ ID NO 50 (VHH)
VHH: QVQLQESGGGSVQAGGSLRLSCAASGYSNCSYDMTWYRQAPGKEREFVSAIHSDGSTRYADSVKGRFFISQDNAKNTVYLQMNSLKPEDTAMYYCKTDPLHCRAHGGSWYSVRANYWGQGTQVTVSS
notes: as for B4

These binders were tested against T1, extracellular domain of human IL10Rβ … (assay: phage display biopanning on the antigen, positive colonies by PE-ELISA).
Description: (§1) Library biopanning was conducted to screen candidates against the antigens after library construction. Phage display technology was applied in this procedure. Positive colonies were identified by PE-ELISA.
(§2) Camels were immunized with the extracellular domains of the human IL10Rα (amino acids 22-235, UniProtKB Q13651, hIL-10Rαecd) and IL10Rβ (amino acids 20-220, UniProtKB Q08334, hIL-10Rβecd) weekly for seven weeks and PBMCs harvested on day 52. Phage display libraries were constructed and biopanning conducted as described in Example 1 above. 50 VHH sequences were obtained after selection on hIL10-R1 and 47 VHH sequences were obtained after selection on hIL10-R2. Sequences were clonotyped using germline assignment and CDR3 sequence similarity.

Row | Binder | binding result
1 | B1 | binds
2 | B2 | binds
3 | B3 | binds

What follows are binders tested against T2, extracellular domain of human IL10Rα … in the same assay as above.
Description: as §1, §2

Row | Binder | binding result
4 | B4 | binds
5 | B5 | binds
6 | B6 | binds
7 | B7 | binds
8 | B8 | binds
9 | B9 | binds
10 | B10 | binds
